In publication doi:10.1101/2023.11.06.565731:

What was measured:
[1] = biological target: mouse α-synuclein pre-formed fibrils (mouse) (UniProt O55042); assay: other fluorescence titration
[2] = biological target: mouse α-synuclein type B* oligomers (mouse) (UniProt O55042); assay: other fluorescence titration

BODIPY630/650-labelled PSMα3 peptide probe P1
Kd [1]: 1400 nM
fold increase of the emission peak intensity [1]: 16 fold
fold increase of the excitation peak intensity [1]: 7.6 fold
fold increase of the emission peak intensity [2]: 3 fold
fold increase of the excitation peak intensity [2]: 1.8 fold
